Laboratory results reported in patent publication US10500249B2, “Compositions and methods for preventing or treating diseases, conditions, or processes characterized by aberrant fibroblast proliferation and extracellular matrix deposition” (MOERAE MATRIX, INC., priority 2014, dated 2019).

What was measured:
Test in all cases: Kinase Profiling Assay
Assay type in all cases: biochemical
Settings in all cases: 100 μM
Abl (M351T) (h) = Abl (M351T) (h) (Homo sapiens, UniProt P00519, M351T)
Outline: (§1)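 Radiometric filter-binding format: cationic substrate takes up labeled phosphate from ATP unless the inhibitor peptide blocks the kinase. Substrate bound to an anionic filter, scintillation-counted, normalized to 100% activity control. Duplicates; part of a 266-kinase selectivity panel for MK2 peptides.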

Aurora-A (h) = biological target: T1, Aurora-A (h) (Homo sapiens, UniProt O14965)
T1 sequence (O14965 1-403): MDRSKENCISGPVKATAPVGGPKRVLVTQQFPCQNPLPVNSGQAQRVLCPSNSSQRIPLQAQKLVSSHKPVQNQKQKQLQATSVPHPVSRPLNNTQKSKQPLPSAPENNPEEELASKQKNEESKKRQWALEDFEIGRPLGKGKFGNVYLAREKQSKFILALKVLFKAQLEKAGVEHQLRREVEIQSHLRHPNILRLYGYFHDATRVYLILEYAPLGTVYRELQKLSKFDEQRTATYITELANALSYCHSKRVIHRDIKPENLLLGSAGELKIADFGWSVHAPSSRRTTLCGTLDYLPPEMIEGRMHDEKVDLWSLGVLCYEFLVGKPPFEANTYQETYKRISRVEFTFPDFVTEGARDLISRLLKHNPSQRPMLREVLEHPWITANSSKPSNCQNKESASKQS
Outline: as §1

CK1γ3 (h) = biological target: T2, CK1γ3 (h) (Homo sapiens, UniProt Q9Y6M4)
T2 construct: purchased Millipore
T2 sequence (Q9Y6M4 whole entry): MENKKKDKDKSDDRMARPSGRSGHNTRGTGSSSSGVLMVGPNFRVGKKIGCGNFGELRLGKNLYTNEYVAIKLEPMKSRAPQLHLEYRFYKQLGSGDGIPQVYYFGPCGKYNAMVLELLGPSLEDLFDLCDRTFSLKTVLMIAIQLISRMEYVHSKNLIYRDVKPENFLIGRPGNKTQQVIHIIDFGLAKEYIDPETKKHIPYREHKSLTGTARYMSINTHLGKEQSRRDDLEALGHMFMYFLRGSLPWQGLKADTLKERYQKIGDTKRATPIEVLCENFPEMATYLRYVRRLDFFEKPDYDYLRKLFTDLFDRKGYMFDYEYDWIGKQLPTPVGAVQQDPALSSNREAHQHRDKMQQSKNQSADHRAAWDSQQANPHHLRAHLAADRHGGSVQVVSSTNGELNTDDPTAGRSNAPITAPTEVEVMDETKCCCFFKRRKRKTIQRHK
Outline: as §1

EGFR(T790M) (h) = biological target: T3, EGFR(T790M) (h) (Homo sapiens, UniProt P00533, T790M)
T3 construct: purchased Millipore
Outline: as §1

HIPK3 (h) = biological target: T4, HIPK3 (h) (Homo sapiens, UniProt Q9H422)
T4 construct: purchased Millipore
T4 sequence (Q9H422 whole entry): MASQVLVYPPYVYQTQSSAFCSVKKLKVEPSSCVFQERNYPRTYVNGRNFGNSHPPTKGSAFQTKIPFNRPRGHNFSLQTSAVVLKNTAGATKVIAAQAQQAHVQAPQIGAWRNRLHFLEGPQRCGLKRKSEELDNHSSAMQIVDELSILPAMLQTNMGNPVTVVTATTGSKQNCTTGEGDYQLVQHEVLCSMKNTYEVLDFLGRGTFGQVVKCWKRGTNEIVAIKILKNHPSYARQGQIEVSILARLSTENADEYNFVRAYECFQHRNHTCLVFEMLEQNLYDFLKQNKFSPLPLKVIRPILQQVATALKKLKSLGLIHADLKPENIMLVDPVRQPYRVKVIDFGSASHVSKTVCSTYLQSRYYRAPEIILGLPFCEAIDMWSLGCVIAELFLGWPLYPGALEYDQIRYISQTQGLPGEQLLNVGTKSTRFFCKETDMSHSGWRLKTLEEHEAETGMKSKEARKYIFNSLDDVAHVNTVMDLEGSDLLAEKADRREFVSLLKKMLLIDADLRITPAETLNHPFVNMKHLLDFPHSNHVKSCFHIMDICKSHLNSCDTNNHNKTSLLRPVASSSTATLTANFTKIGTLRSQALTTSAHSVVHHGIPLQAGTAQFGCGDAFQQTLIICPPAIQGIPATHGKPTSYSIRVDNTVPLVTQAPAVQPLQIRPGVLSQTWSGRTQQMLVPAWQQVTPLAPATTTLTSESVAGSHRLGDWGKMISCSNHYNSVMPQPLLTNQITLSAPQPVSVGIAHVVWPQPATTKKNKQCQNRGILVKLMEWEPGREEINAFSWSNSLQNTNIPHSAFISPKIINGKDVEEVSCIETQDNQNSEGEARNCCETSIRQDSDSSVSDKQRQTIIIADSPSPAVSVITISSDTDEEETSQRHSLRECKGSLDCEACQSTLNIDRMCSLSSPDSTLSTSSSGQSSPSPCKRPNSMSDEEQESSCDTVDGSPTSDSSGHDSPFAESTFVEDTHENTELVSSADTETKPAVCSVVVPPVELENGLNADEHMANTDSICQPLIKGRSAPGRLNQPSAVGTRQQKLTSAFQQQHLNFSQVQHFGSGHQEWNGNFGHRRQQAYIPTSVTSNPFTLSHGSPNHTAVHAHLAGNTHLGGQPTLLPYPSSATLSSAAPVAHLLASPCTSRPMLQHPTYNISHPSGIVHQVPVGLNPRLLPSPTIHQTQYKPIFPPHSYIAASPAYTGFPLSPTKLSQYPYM
Outline: as §1

IKKα (h) = biological target: T5, IKKα (h) (Homo sapiens, UniProt O15111)
T5 construct: purchased Millipore
T5 sequence (O15111 1-745): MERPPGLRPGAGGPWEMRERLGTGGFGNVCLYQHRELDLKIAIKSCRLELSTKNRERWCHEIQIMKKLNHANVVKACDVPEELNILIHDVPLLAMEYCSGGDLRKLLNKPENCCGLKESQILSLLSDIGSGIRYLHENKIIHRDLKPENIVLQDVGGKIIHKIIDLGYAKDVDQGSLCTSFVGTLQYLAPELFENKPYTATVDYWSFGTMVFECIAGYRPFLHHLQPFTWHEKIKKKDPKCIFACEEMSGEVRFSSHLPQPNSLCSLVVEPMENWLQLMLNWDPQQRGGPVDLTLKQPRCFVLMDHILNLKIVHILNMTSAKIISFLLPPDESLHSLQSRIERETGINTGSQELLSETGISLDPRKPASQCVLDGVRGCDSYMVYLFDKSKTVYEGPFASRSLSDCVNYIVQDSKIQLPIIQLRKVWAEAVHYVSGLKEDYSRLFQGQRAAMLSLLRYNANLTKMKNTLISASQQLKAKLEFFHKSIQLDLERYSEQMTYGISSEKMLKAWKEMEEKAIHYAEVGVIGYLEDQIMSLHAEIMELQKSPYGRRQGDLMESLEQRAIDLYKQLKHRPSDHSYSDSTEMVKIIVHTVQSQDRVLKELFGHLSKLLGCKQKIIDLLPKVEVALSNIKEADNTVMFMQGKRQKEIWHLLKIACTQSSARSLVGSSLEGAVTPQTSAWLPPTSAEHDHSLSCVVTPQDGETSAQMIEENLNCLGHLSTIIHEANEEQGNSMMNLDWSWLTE
Outline: as §1

JNK1α1 (h) = JNK1α1 (h) (Homo sapiens, UniProt P45983)
Outline: as §1

Lck (h) = Lck (h) (Homo sapiens, UniProt P06239)
Outline: as §1

MKK7β (h) = biological target: T6, MKK7β (h) (Homo sapiens, UniProt O14733)
T6 construct: purchased Millipore
T6 sequence (O14733 1-419): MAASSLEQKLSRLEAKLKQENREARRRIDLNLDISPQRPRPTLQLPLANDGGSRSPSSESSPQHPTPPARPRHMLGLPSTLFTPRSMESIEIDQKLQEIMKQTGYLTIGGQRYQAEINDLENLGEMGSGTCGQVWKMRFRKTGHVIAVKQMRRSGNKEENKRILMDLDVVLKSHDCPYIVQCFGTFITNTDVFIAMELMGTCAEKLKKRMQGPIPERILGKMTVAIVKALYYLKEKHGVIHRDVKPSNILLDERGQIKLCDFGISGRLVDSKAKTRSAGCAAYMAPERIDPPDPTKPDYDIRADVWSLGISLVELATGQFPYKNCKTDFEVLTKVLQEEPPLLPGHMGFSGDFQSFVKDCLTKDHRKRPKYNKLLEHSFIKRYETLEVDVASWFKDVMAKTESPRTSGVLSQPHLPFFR
Outline: as §1

PDGFRα (D842V) (h) = biological target: T7, PDGFRα (D842V) (h) (Homo sapiens, UniProt P16234, D842V)
T7 construct: purchased Millipore
T7 sequence (P16234 24-1089 D842V): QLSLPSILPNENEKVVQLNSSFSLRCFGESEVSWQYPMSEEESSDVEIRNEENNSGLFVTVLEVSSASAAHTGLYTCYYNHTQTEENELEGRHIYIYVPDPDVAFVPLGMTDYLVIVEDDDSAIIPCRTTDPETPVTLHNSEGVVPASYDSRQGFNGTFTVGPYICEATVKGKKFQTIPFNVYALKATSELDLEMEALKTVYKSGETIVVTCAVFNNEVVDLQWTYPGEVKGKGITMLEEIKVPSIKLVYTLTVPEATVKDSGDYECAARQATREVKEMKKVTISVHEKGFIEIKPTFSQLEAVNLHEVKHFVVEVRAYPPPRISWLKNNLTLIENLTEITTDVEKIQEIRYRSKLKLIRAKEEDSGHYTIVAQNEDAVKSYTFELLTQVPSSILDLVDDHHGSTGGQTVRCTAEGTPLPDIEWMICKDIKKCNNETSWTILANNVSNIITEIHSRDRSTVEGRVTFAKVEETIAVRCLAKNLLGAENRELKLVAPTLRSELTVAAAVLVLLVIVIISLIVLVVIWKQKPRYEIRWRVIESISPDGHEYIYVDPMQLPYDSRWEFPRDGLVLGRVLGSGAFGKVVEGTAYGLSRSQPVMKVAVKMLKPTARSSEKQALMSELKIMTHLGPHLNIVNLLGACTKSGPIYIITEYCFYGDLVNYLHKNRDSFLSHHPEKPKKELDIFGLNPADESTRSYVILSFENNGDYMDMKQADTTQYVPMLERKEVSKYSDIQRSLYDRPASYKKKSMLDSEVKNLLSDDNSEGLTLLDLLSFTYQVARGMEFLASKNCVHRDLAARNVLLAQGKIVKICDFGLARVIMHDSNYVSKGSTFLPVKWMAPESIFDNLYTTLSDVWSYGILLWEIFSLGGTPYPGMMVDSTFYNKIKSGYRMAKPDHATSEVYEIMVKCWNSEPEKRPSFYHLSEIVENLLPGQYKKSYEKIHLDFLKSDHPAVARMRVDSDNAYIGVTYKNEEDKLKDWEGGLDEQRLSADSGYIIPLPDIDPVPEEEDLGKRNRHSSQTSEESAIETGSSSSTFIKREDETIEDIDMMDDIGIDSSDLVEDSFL
Outline: as §1

PKA (h) = biological target: T8, PKA (h) (Homo sapiens, UniProt P17612)
T8 construct: purchased Millipore
Outline: as §1

Snk (h) = Snk (h) (Homo sapiens, UniProt Q9NYY3)
Outline: as §1

cKit(V560G) (h) = biological target: T9, cKit(V560G) (h) (Homo sapiens, UniProt P10721, V560G)
T9 construct: purchased Millipore
Outline: as §1

CK2α2 (h) = biological target: T10, CK2α2 (h) (Homo sapiens, UniProt P19784)
T10 construct: purchased Millipore
Outline: as §1

GRK5 (h) = biological target: T11, GRK5 (h) (Homo sapiens, UniProt P34947)
T11 construct: purchased Millipore
T11 sequence (P34947 whole entry): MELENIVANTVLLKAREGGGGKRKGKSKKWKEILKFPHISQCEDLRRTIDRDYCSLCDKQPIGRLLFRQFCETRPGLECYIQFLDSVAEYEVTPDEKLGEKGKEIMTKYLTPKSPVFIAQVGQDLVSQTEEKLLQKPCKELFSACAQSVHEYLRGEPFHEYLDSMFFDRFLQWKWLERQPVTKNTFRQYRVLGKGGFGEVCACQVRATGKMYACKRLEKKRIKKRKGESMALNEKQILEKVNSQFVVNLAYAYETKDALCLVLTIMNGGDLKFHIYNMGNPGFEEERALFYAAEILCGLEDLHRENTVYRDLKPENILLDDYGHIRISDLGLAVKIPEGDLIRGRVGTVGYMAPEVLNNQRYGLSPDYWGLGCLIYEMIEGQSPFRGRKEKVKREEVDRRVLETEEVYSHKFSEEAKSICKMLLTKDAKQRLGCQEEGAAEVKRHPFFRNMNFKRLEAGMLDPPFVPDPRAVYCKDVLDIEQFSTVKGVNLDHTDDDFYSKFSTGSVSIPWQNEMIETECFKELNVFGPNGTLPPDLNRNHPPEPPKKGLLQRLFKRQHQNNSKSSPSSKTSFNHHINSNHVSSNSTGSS
Outline: as §1

IGF-1R (h) = biological target: T12, IGF-1R (h) (Homo sapiens, UniProt P08069)
T12 construct: purchased Millipore
Outline: as §1

MAPK1 (h) = MAPK1 (h) (Homo sapiens, UniProt P27361)
MAPK1 (h), sequence (P27361 whole entry): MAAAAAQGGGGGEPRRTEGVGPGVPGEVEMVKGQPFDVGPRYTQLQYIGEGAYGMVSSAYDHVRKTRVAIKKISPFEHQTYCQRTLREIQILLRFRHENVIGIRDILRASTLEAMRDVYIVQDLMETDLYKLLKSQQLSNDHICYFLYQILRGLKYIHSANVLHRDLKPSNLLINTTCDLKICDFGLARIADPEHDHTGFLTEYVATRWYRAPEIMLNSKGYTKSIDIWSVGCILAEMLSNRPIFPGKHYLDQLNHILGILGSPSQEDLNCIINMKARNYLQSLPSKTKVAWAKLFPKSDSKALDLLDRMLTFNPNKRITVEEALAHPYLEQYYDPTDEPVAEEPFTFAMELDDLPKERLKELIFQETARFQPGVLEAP
Outline: as §1

Tie2(R849W) (h) = Tie2(R849W) (h) (Homo sapiens, UniProt Q02763, R849W)
Tie2(R849W) (h), sequence (Q02763 23-1124 R849W): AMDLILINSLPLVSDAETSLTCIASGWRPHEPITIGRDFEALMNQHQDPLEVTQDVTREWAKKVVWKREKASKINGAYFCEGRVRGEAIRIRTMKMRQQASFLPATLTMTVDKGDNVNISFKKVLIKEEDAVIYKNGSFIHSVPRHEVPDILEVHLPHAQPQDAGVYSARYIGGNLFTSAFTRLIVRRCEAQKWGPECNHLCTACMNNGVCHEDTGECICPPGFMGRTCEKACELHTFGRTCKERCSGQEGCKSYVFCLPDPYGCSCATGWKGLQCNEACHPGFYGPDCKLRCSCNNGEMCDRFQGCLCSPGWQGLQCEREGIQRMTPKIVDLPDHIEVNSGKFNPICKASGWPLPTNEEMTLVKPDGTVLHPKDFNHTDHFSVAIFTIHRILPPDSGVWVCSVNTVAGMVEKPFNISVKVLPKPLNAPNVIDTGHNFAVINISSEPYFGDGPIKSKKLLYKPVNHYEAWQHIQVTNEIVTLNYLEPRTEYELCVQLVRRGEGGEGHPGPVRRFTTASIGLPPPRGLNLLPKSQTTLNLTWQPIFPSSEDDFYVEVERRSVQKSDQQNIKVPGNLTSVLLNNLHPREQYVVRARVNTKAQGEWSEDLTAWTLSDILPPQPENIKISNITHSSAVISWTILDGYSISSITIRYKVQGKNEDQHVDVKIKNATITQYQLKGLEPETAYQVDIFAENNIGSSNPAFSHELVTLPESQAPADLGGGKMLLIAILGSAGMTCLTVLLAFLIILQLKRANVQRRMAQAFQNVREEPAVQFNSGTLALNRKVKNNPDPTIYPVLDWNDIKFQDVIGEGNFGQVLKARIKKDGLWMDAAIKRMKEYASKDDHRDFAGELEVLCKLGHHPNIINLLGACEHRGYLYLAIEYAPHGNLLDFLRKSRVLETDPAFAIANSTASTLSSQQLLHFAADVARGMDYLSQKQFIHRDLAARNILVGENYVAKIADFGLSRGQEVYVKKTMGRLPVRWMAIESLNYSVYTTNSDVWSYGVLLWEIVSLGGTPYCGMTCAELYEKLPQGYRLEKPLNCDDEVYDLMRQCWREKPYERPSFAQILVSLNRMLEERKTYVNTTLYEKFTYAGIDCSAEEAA
Outline: as §1

FAKLAARLYRKALARQLGVAA [MMI-0300]
% activity (Abl (M351T) (h)): 90% | % activity (Aurora-A (h)): 92% | % activity (CK1γ3 (h)): 125% | % activity (EGFR(T790M) (h)): 100% | % activity (HIPK3 (h)): 93% | % activity (IKKα (h)): 93% | % activity (JNK1α1 (h)): 97% | % activity (Lck (h)): −2% | % activity (MKK7β (h)): 100%

HRRIKAWLKKIKALARQLGVAA (Mammalian) [MMI-0500]
% activity (Abl (M351T) (h)): 61% | % activity (Aurora-A (h)): 110% | % activity (EGFR(T790M) (h)): 70% | % activity (HIPK3 (h)): 85% | % activity (IKKα (h)): 50% | % activity (Lck (h)): 359% | % activity (PDGFRα (D842V) (h)): 170% | % activity (PKA (h)): 118% | % activity (Snk (h)): 122% | % activity (cKit(V560G) (h)): 198%

KAFAKLAARLYRKALARQLGVAA [MMI-0400]
% activity (CK2α2 (h)): 96% | % activity (GRK5 (h)): 131% | % activity (IGF-1R (h)): 90% | % activity (IKKα (h)): 87% | % activity (JNK1α1 (h)): 98% | % activity (MAPK1 (h)): 100% | % activity (MKK7β (h)): 94% | % activity (PDGFRα (D842V) (h)): 118% | % activity (Snk (h)): 131% | % activity (Tie2(R849W) (h)): 108% | % activity (cKit(V560G) (h)): 124%

YARAAARQARAKALNRQLGVA (Mammalian) [MMI-0200]
% activity (CK1γ3 (h)): 96% | % activity (CK2α2 (h)): 88% | % activity (GRK5 (h)): 135% | % activity (IGF-1R (h)): 49% | % activity (MAPK1 (h)): 97% | % activity (PKA (h)): 110% | % activity (Tie2(R849W) (h)): 89%
